Measured values from patent US20030114379A1.

Molecular target: CCR1 (human) (UniProt P32246)
Assay: cell-based or functional assay

CCR1 (human), sequence (P32246 whole entry): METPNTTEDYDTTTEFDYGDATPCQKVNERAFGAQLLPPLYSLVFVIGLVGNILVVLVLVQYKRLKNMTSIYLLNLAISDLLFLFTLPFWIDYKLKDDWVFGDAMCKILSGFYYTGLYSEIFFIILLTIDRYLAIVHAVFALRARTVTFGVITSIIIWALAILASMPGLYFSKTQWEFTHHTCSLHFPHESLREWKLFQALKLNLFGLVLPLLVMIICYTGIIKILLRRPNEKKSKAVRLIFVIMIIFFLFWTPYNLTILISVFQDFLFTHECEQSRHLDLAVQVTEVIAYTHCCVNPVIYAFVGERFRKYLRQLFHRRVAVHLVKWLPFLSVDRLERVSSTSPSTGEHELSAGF

## MPIF-1 wild type (mature MPIF-1 secreted from a baculovirus expression system) (from UniProt P55773 22-120) (ligand)
  Ca2+ mobilization (ng/mL): minimum concentration required to mobilize calcium in human monocytes and/or THP-1 cells; MPIF-1/HG00300-B5: 1000 ng/mL
